From US20250327097A1, “ORGANISMS PRODUCING LESS CROTONIC ACID” (Global Bioenergies, priority 2021, published 2025)

B1: V272R-I283T-P284D-i284aP-N287P-S322T-N388M-E421V-C430N-L432F-L434W-S436N-C437F-G448E-H461T-dG462-A463T (protein)
chain: MFLKSLREQINLLKRQGDLRIINRPVDSYLEAAAIIRRSTETKAPVPLMTNIKGYPGCSIVGGLAALSSNPEYPLSRVAMSLGLSTTASAQSIVQYLIDGLKKTPYLPVEIDSNSAPCKQNILRGEDASLAHFPIPQVHQHDGNRYVNTWGVFIVESPDGQWCNWSIQRVQYLNDRQMIALVFPSQHISDIWEEWVKIGKPMPYALVQGCEPIVPYIAGLPLLERNVNEAEYIGALYGKGIEVVKCETHDLRVPASSEVVIEGYFAITREGREGPFGEFAGYTDNEPSLQPILSITAISWQDDPIWPVVAEGKPVDEYHTCTGIGDAAAIQNVLLTANLPVSFVWVPLYSACHLMIVSINRHWRQTHPDLTSEQLTKKVGDVIHQTRMSIKLPKIVVLDDDVDPADTESLLWALATRIHPVRKRYFYESNIFPWLNFYSEEERHNRKEKRVIIDALLPENTGTISSFDYAYPDDIKQRVLMHWETDFSHD
B2: V272I-I283T-P284D-i284aP-N287P-S322T-N388M-E421V-C430N-L432F-L434W-S436N-C437F-H461T-G462R-i462aA-A463T (protein)
chain: MFLKSLREQINLLKRQGDLRIINRPVDSYLEAAAIIRRSTETKAPVPLMTNIKGYPGCSIVGGLAALSSNPEYPLSRVAMSLGLSTTASAQSIVQYLIDGLKKTPYLPVEIDSNSAPCKQNILRGEDASLAHFPIPQVHQHDGNRYVNTWGVFIVESPDGQWCNWSIQRVQYLNDRQMIALVFPSQHISDIWEEWVKIGKPMPYALVQGCEPIVPYIAGLPLLERNVNEAEYIGALYGKGIEVVKCETHDLRVPASSEVVIEGYFAITREGIEGPFGEFAGYTDNEPSLQPILSITAISWQDDPIWPVVAEGKPVDEYHTCTGIGDAAAIQNVLLTANLPVSFVWVPLYSACHLMIVSINRHWRQTHPDLTSEQLTKKVGDVIHQTRMSIKLPKIVVLDDDVDPADTESLLWALATRIHPVRKRYFYESNIFPWLNFYSEEERHNRKGKRVIIDALLPENTRTISSFDYAYPDDIKQRVLMHWETDFSHD
B3: V272K-I283T-P284D-i284aP-N287P-S322T-N388M-E421V-C430N-L432F-L434W-S436N-C437F-H461T-G462R-i462aA-A463T (protein)
chain: MFLKSLREQINLLKRQGDLRIINRPVDSYLEAAAIIRRSTETKAPVPLMTNIKGYPGCSIVGGLAALSSNPEYPLSRVAMSLGLSTTASAQSIVQYLIDGLKKTPYLPVEIDSNSAPCKQNILRGEDASLAHFPIPQVHQHDGNRYVNTWGVFIVESPDGQWCNWSIQRVQYLNDRQMIALVFPSQHISDIWEEWVKIGKPMPYALVQGCEPIVPYIAGLPLLERNVNEAEYIGALYGKGIEVVKCETHDLRVPASSEVVIEGYFAITREGKEGPFGEFAGYTDNEPSLQPILSITAISWQDDPIWPVVAEGKPVDEYHTCTGIGDAAAIQNVLLTANLPVSFVWVPLYSACHLMIVSINRHWRQTHPDLTSEQLTKKVGDVIHQTRMSIKLPKIVVLDDDVDPADTESLLWALATRIHPVRKRYFYESNIFPWLNFYSEEERHNRKGKRVIIDALLPENTRTISSFDYAYPDDIKQRVLMHWETDFSHD
B4: V272R-I283T-P284D-i284aP-N287P-S322T-N388M-E421V-C430N-L432F-L434W-S436N-G448E-H461T-G462R-i462aA-A463T (protein)
chain: MFLKSLREQINLLKRQGDLRIINRPVDSYLEAAAIIRRSTETKAPVPLMTNIKGYPGCSIVGGLAALSSNPEYPLSRVAMSLGLSTTASAQSIVQYLIDGLKKTPYLPVEIDSNSAPCKQNILRGEDASLAHFPIPQVHQHDGNRYVNTWGVFIVESPDGQWCNWSIQRVQYLNDRQMIALVFPSQHISDIWEEWVKIGKPMPYALVQGCEPIVPYIAGLPLLERNVNEAEYIGALYGKGIEVVKCETHDLRVPASSEVVIEGYFAITREGREGPFGEFAGYTDNEPSLQPILSITAISWQDDPIWPVVAEGKPVDEYHTCTGIGDAAAIQNVLLTANLPVSFVWVPLYSACHLMIVSINRHWRQTHPDLTSEQLTKKVGDVIHQTRMSIKLPKIVVLDDDVDPADTESLLWALATRIHPVRKRYFYESNIFPWLNCYSEEERHNRKEKRVIIDALLPENTRTISSFDYAYPDDIKQRVLMHWETDFSHD
B5: V272R-I283T-P284D-i284aP-N287P-S322T-N388M-E421V-C430N-L432F-L434W-S436N-C437F-G448E-H461T-G462R-i462aA-A463T (protein)
chain: MFLKSLREQINLLKRQGDLRIINRPVDSYLEAAAIIRRSTETKAPVPLMTNIKGYPGCSIVGGLAALSSNPEYPLSRVAMSLGLSTTASAQSIVQYLIDGLKKTPYLPVEIDSNSAPCKQNILRGEDASLAHFPIPQVHQHDGNRYVNTWGVFIVESPDGQWCNWSIQRVQYLNDRQMIALVFPSQHISDIWEEWVKIGKPMPYALVQGCEPIVPYIAGLPLLERNVNEAEYIGALYGKGIEVVKCETHDLRVPASSEVVIEGYFAITREGREGPFGEFAGYTDNEPSLQPILSITAISWQDDPIWPVVAEGKPVDEYHTCTGIGDAAAIQNVLLTANLPVSFVWVPLYSACHLMIVSINRHWRQTHPDLTSEQLTKKVGDVIHQTRMSIKLPKIVVLDDDVDPADTESLLWALATRIHPVRKRYFYESNIFPWLNFYSEEERHNRKEKRVIIDALLPENTRTISSFDYAYPDDIKQRVLMHWETDFSHD
B6: V272R-I283T-P284D-i284aP-N287P-S322T-N388M-E421V-C430N-L432F-L434W-S436N-H461T-G462R-i462aA-A463T (protein)
chain: MFLKSLREQINLLKRQGDLRIINRPVDSYLEAAAIIRRSTETKAPVPLMTNIKGYPGCSIVGGLAALSSNPEYPLSRVAMSLGLSTTASAQSIVQYLIDGLKKTPYLPVEIDSNSAPCKQNILRGEDASLAHFPIPQVHQHDGNRYVNTWGVFIVESPDGQWCNWSIQRVQYLNDRQMIALVFPSQHISDIWEEWVKIGKPMPYALVQGCEPIVPYIAGLPLLERNVNEAEYIGALYGKGIEVVKCETHDLRVPASSEVVIEGYFAITREGREGPFGEFAGYTDNEPSLQPILSITAISWQDDPIWPVVAEGKPVDEYHTCTGIGDAAAIQNVLLTANLPVSFVWVPLYSACHLMIVSINRHWRQTHPDLTSEQLTKKVGDVIHQTRMSIKLPKIVVLDDDVDPADTESLLWALATRIHPVRKRYFYESNIFPWLNCYSEEERHNRKGKRVIIDALLPENTRTISSFDYAYPDDIKQRVLMHWETDFSHD
B7: A33P-I283T-P284D-i284aP-N287P-S322T-N388M-E421V-C430N-L432F-L434W-S436N-C437F-H461T-G462R-i462aA-A463T (protein)
chain: MFLKSLREQINLLKRQGDLRIINRPVDSYLEAPAIIRRSTETKAPVPLMTNIKGYPGCSIVGGLAALSSNPEYPLSRVAMSLGLSTTASAQSIVQYLIDGLKKTPYLPVEIDSNSAPCKQNILRGEDASLAHFPIPQVHQHDGNRYVNTWGVFIVESPDGQWCNWSIQRVQYLNDRQMIALVFPSQHISDIWEEWVKIGKPMPYALVQGCEPIVPYIAGLPLLERNVNEAEYIGALYGKGIEVVKCETHDLRVPASSEVVIEGYFAITREGVEGPFGEFAGYTDNEPSLQPILSITAISWQDDPIWPVVAEGKPVDEYHTCTGIGDAAAIQNVLLTANLPVSFVWVPLYSACHLMIVSINRHWRQTHPDLTSEQLTKKVGDVIHQTRMSIKLPKIVVLDDDVDPADTESLLWALATRIHPVRKRYFYESNIFPWLNFYSEEERHNRKGKRVIIDALLPENTRTISSFDYAYPDDIKQRVLMHWETDFSHD
B8: V272R-I283T-P284D-i284aP-N287P-S322T-N388M-E421V-C430N-L432F-L434W-S436N-C437F-H461T-G462R-i462aA-A463T (protein)
chain: MFLKSLREQINLLKRQGDLRIINRPVDSYLEAAAIIRRSTETKAPVPLMTNIKGYPGCSIVGGLAALSSNPEYPLSRVAMSLGLSTTASAQSIVQYLIDGLKKTPYLPVEIDSNSAPCKQNILRGEDASLAHFPIPQVHQHDGNRYVNTWGVFIVESPDGQWCNWSIQRVQYLNDRQMIALVFPSQHISDIWEEWVKIGKPMPYALVQGCEPIVPYIAGLPLLERNVNEAEYIGALYGKGIEVVKCETHDLRVPASSEVVIEGYFAITREGREGPFGEFAGYTDNEPSLQPILSITAISWQDDPIWPVVAEGKPVDEYHTCTGIGDAAAIQNVLLTANLPVSFVWVPLYSACHLMIVSINRHWRQTHPDLTSEQLTKKVGDVIHQTRMSIKLPKIVVLDDDVDPADTESLLWALATRIHPVRKRYFYESNIFPWLNFYSEEERHNRKGKRVIIDALLPENTRTISSFDYAYPDDIKQRVLMHWETDFSHD
B9: I283T-P284D-i284aP-N287P-S322T-H384S-N388M-E421V-C430N-L432F-L434W-S436N-C437F-H461T-G462R-i462aA-A463T (protein)
chain: MFLKSLREQINLLKRQGDLRIINRPVDSYLEAAAIIRRSTETKAPVPLMTNIKGYPGCSIVGGLAALSSNPEYPLSRVAMSLGLSTTASAQSIVQYLIDGLKKTPYLPVEIDSNSAPCKQNILRGEDASLAHFPIPQVHQHDGNRYVNTWGVFIVESPDGQWCNWSIQRVQYLNDRQMIALVFPSQHISDIWEEWVKIGKPMPYALVQGCEPIVPYIAGLPLLERNVNEAEYIGALYGKGIEVVKCETHDLRVPASSEVVIEGYFAITREGVEGPFGEFAGYTDNEPSLQPILSITAISWQDDPIWPVVAEGKPVDEYHTCTGIGDAAAIQNVLLTANLPVSFVWVPLYSACHLMIVSINRHWRQTHPDLTSEQLTKKVGDVISQTRMSIKLPKIVVLDDDVDPADTESLLWALATRIHPVRKRYFYESNIFPWLNFYSEEERHNRKGKRVIIDALLPENTRTISSFDYAYPDDIKQRVLMHWETDFSHD
B10: V272R-I283T-P284D-i284aP-N287P-S322T-N388M-E421V-C430N-L432F-L434W-S436N-G448E-H461T-dG462-A463T (protein)
chain: MFLKSLREQINLLKRQGDLRIINRPVDSYLEAAAIIRRSTETKAPVPLMTNIKGYPGCSIVGGLAALSSNPEYPLSRVAMSLGLSTTASAQSIVQYLIDGLKKTPYLPVEIDSNSAPCKQNILRGEDASLAHFPIPQVHQHDGNRYVNTWGVFIVESPDGQWCNWSIQRVQYLNDRQMIALVFPSQHISDIWEEWVKIGKPMPYALVQGCEPIVPYIAGLPLLERNVNEAEYIGALYGKGIEVVKCETHDLRVPASSEVVIEGYFAITREGREGPFGEFAGYTDNEPSLQPILSITAISWQDDPIWPVVAEGKPVDEYHTCTGIGDAAAIQNVLLTANLPVSFVWVPLYSACHLMIVSINRHWRQTHPDLTSEQLTKKVGDVIHQTRMSIKLPKIVVLDDDVDPADTESLLWALATRIHPVRKRYFYESNIFPWLNCYSEEERHNRKEKRVIIDALLPENTGTISSFDYAYPDDIKQRVLMHWETDFSHD

Test system: 3-methylcrotonic acid
Format: biochemical, Yersinia frederiksenii
Parameters: key: “+” representing a low increase in activity; “++++” representing a high increase in activity

Molecule | Activity relative to WT
B1 | ++++
B2 | ++++
B3 | ++++
B4 | ++++
B5 | ++++
B6 | ++++
B7 | ++++
B8 | ++++
B9 | ++++
B10 | ++++
